# Reference: the supplement of paper PMC12042874
# ± gives the uncertainty stated by the source.
# Assay: amyloid nucleation score (Sup35N fusion, yeast selection) (log enrichment); library NNK2; higher = more nucleation; inactive = no reads after selection
# Procedure, shortened: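 Plasmid inserts were Illumina-sequenced at input and output from psi-negative yeast expressing Sup35N fused to peptides of 20 random codons. The yeast were induced with 100 μM copper sulfate for 24 hours and grown 7 days at 30°C on medium lacking adenine and uracil, and sequences with under 100 input reads were excluded. Nucleation score is the DiMSum log enrichment of output over input reads, centred on the mode score of non-aggregating sequences.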
row,Substance,amyloid nucleation score
1,NVLCKRVMMV,0.384 ± 0.66
2,FHFKLRGWPGRGVTSMGS,-0.873 ± 0.62
3,NVGSVKHGS,0.531 ± 0.57
4,GMSSIINVELAGQWTWVKFN,4.18 ± 0.066
5,GVEQFFGRSSAVHL,-0.341 ± 0.79
6,TIYPDMETHLV,-0.075 ± 0.49
7,SLRNDGFNLDPVLHALFVEL,-0.306 ± 0.63
8,VFIMRISCY,-0.424 ± 1.1
9,MDKFFFSFTYGGLSQPDQGV,-1.35 ± 1.1
10,KNLRWCQGFSRGIECRSLMV,-0.639 ± 0.55
11,FIDRMKMLWGLKSWDFQCHW,0.362 ± 0.45
12,TDLSLWNTILRVAG,0.05 ± 0.31
13,WFHVAAYAFRGTCYHLGGVL,4.39 ± 0.096
14,IFKCRRVI,4.614 ± 0.041
15,GCKVIYIYIIHIFKCIITNW,inactive
16,LVLLKGYKRSNNGKQCYAGL,0.365 ± 0.66
17,SMFFYSFNWLQFYFRVDVHW,-0.311 ± 1.1
18,PPDNVSNWYVVKWAGRMMQK,4.13 ± 0.044
19,VLPGVSFFTYRFKKF,inactive
20,LGIIQTVCRHGLQFMCVSRG,-0.122 ± 0.49
21,PDIYLYFLKKVMRS,-1.57 ± 1.1

row,Substance,amyloid nucleation score
1,LNKQRSCFNVMGGWRKIYPS,0.783 ± 0.13
2,VNVNMPWTEERSKSEMSNTW,1.4 ± 0.37
3,GFWKTYNTFVLSWSRTNCLQ,0.431 ± 0.64
4,SQVQSFIFSPGLNNSKAEFT,-0.078 ± 0.8
5,GYLGMWVKTCCQWTGERSDM,4.66 ± 0.057
6,RGTNQSSVSMRGAL,0.523 ± 0.36
7,NRYYYISSQGDDMQAGCFHY,-0.963 ± 1.1
8,LCRMCIANCLMSCWESSYQV,3.13 ± 0.17
9,VFLAPRMF,-0.864 ± 0.45
10,IRMDGYEIRFSHSLYYLSH,2.45 ± 0.081
11,MPVHSQSRMVRRRVDKTI,-0.632 ± 0.76
12,RFGLGINLLIGVRLLCLALL,0.043 ± 1
13,VKNFYVNIFQCGIPPPFKEM,7.668 ± 0.026
14,GVPDCLLCVNSIYQGSLSFG,5.24 ± 0.09
15,DAMSMCP,7.398 ± 0.061
16,IPRCKKW,3.22 ± 0.1
17,FRLLWCMFSL,0.571 ± 0.13
18,VHRTEVRLLSQGTRYVSCNS,2.06 ± 0.3
19,VFLYAYYLNI,0.039 ± 0.77
20,GFRSLNVSRANLCSYIRHLL,0.02 ± 0.44
21,LIGGLVSPISRYEVGWQDAV,-0.213 ± 0.62

row,Substance,amyloid nucleation score
1,PCWLNGWERFHIWRFNGSVR,-0.281 ± 0.37
2,CTEFSLTDCSSG,inactive
3,MKGFELSLLVMRHSLELYRI,0.463 ± 0.65
4,IDSMGFSMKSFDFRYNTSRW,5.02 ± 0.092
5,YRRLRTNLLWRQSRSY,0.817 ± 0.54
6,WKESGVHRHFHTSIGKDRVL,inactive
7,GKITVRDISYVRIWRDSLLY,3.25 ± 0.1
8,KRILS,-0.13 ± 0.34
9,FIAFVYNL,1.95 ± 0.091
10,ALFTLRVMLTTYYWQGMAEF,0.296 ± 0.31
11,GYDVERDNFDCVVTKDELFW,-0.427 ± 0.21
12,KNIPFRMYWS,2.6 ± 0.075
13,FHLFSVGTEGTPRRRKFAGD,-0.481 ± 0.78
14,VHRSLSLFSFKSSECRPS,6.456 ± 0.064
15,CTVFCLQRSFGHYSLMMLIN,2.22 ± 0.12
16,YNLSSLLRCDLAAKTRTIFM,-0.575 ± 0.35
17,MSITSC,inactive
18,IPLQSTMRFRCPVMDLGNFI,-0.849 ± 1
19,SVFMFCVSEL,-0.049 ± 0.63
20,CFMLVFSRTCVSMYTIVNPS,4.59 ± 0.11
21,SLWKLGSLMSTFFEL,-0.758 ± 0.45

row,Substance,amyloid nucleation score
1,LTSNPVPSNLT,3.35 ± 0.076
2,KQPLYCHDWFHLCGSDSTSF,2.75 ± 0.16
3,SLVENRVGISDVWKVSTLVG,0.042 ± 0.29
4,MLDLNQFLCRGFKLTRPYGL,-0.155 ± 0.54
5,DWRLARLSSVRFLNGIDCDF,0.015 ± 0.56
6,VRSISASLSAMIYR,-0.925 ± 0.45
7,KEMARTSSSRCDITLQWPAS,0.562 ± 0.44
8,RGYFPFYNR,-0.907 ± 0.65
9,VAKRISHGIQLSLSCKGTRP,0.138 ± 0.76
10,KNGQYDGTGDNSLLGPDGFI,3.44 ± 0.075
11,LRQYKRALAVGLDWFPSVLR,0.113 ± 0.8
12,FYMLASPSSTLDSTPKVRSC,-0.665 ± 1.1
13,DYLVSMTVNSASLFRYIERR,5.209 ± 0.029
14,FIKMAITDRCGMAYS,-0.752 ± 0.53
15,RWLVRTEKSS,2.03 ± 0.1
16,DGFSFIVRSFVWRNNHADAG,3.71 ± 0.12
17,YREHQKVRFSSLISSIGVLM,-0.004 ± 0.49
18,RSIISFPLFLFSIQLIPPWA,-0.792 ± 0.6
19,PSTIGQYITR,-0.119 ± 0.49
20,SFRLQIRV,-0.417 ± 0.23
21,FVLFENSGLFMGLDICMLCQ,1.01 ± 0.32
